B1: 82H02 VL1.03 (bispecific TCE of Table 29) (bispecific antibody, V domains shown)
VH: EVQLLESGGGLVQPGGSLRLSCAASGFTFTSYAMSWVRQAPGKGLEWVSTISGSGGGTYYTDSVKGRFTISRDNSKNTLYLQMNSLRAEDTAVYYCAQGSSIFDYWGQGTLVTVSS
VL: EIVLTQSPATLSLSPGERATLSCRASQSVSSYLAWYQQKPGQAPRLLIYDASNRATGIPARFSGSGSGTDFTLTISSLEPEDFAVYYCQQRSNWPPQTFGQGTRLEIK
notes: also called 82H02 v1.03
B2: 82H02 VL1.05 (bispecific TCE of Table 29) (bispecific antibody, V domains shown)
VH: EVQLLESGGGLVQPGGSLRLSCAASGFTFTSYAMSWVRQAPGKGLEWVSTISGSGGGTYYTDSVKGRFTISRDNSKNTLYLQMNSLRAEDTAVYYCAQGSSIFDYWGQGTLVTVSS
VL: EIVLTQSPATLSLSPGERATLSCRASQSVSSYLAWYQQKPGQAPRLLIYDASNRATGIPARFSGSGSGTDFTLTISSLEPEDFAVYYCQQRSNWPPLTFGQGTRLEIK
notes: also called 82H02 v1.05
B3: 82H02 VL1.09 (bispecific TCE of Table 29) (bispecific antibody, V domains shown)
VH: EVQLLESGGGLVQPGGSLRLSCAASGFTFTSYAMSWVRQAPGKGLEWVSTISGSGGGTYYTDSVKGRFTISRDNSKNTLYLQMNSLRAEDTAVYYCAQGSSIFDYWGQGTLVTVSS
VL: EIVLTQSPATLSLSPGERATLSCRASQSVSSYLAWYQQKPGQAPRLLIYDASNRATGIPARFSGSGSGTDFTLTISSLEPEDFAVYYCQQRSNWPPVTFGQGTRLEIK
notes: also called 82H02 v1.09
B4: 82H02 VL1.08 (bispecific TCE of Table 29) (bispecific antibody, V domains shown)
VH: EVQLLESGGGLVQPGGSLRLSCAASGFTFTSYAMSWVRQAPGKGLEWVSTISGSGGGTYYTDSVKGRFTISRDNSKNTLYLQMNSLRAEDTAVYYCAQGSSIFDYWGQGTLVTVSS
VL: EIVLTQSPATLSLSPGERATLSCRASQSVSSYLAWYQQKPGQAPRLLIYDASNRATGIPARFSGSGSGTDFTLTISSLEPEDFAVYYCQQRSNWPPYTFGQGTRLEIK
notes: also called 82H02 v1.08
B5: 82H02 VL1.07 (high) (bispecific TCE of Table 29) (bispecific antibody, V domains shown)
VH: EVQLLESGGGLVQPGGSLRLSCAASGFTFTSYAMSWVRQAPGKGLEWVSTISGSGGGTYYTDSVKGRFTISRDNSKNTLYLQMNSLRAEDTAVYYCAQGSSIFDYWGQGTLVTVSS
VL: EIVLTQSPATLSLSPGERATLSCRASQSVSSYLAWYQQKPGQAPRLLIYDASNRATGIPARFSGSGSGTDFTLTISSLEPEDFAVYYCQQRSNWPPSTFGQGTRLEIK
notes: also called 82H02 v1.07
B6: 82H02 VL1.04 (bispecific TCE of Table 29) (bispecific antibody, V domains shown)
VH: EVQLLESGGGLVQPGGSLRLSCAASGFTFTSYAMSWVRQAPGKGLEWVSTISGSGGGTYYTDSVKGRFTISRDNSKNTLYLQMNSLRAEDTAVYYCAQGSSIFDYWGQGTLVTVSS
VL: not shown
notes: also called 82H02 v1.04
B7: 82H02 VL1.06 (low) (bispecific TCE of Table 29) (bispecific antibody, V domains shown)
VH: EVQLLESGGGLVQPGGSLRLSCAASGFTFTSYAMSWVRQAPGKGLEWVSTISGSGGGTYYTDSVKGRFTISRDNSKNTLYLQMNSLRAEDTAVYYCAQGSSIFDYWGQGTLVTVSS
VL: EIVLTQSPATLSLSPGERATLSCRASQSVSSYLAWYQQKPGQAPRLLIYDASNRATGIPARFSGSGSGTDFTLTISSLEPEDFAVYYCQQRSNWPPFTFGQGTRLEIK
notes: also called 82H02 v1.06

The target of the test is T1, recombinant human ROR1 extracellular domain protein (human, UniProt Q01973 30-406).
T1 construct: also called Human/Cyno ROR1
Description: biolayer interferometry, TCE immobilized. The source says: This example describes biolayer interferometry experiments that were used to determine the binding affinities of bispecific TCEs and sequence optimized variants of the present disclosure.
B1: the Kd turned out to be 475 nM.

For the molecule B2, the Kd came to 154 nM.

For the molecule B3, the Kd is 160 nM.

As for B4, the Kd amounted to 166 nM.

Consider B5, for which the Kd came to 4.2 nM.

For the molecule B6, the Kd stood at 50.7 nM.

In the case of B7, the Kd came to 99 nM.
